{"source": "patent CN105542008A", "about": "(UNIV NANCHANG, dated 2016)", "binders": {"B1": {"name": "抗前列腺特异性膜抗原单域重链抗体噬菌体阳性克隆 (VHH)", "VHH": "QLQLVESGGGLVQPGGSLRLTCTTSGFSLRYHDIGWFRQAPGKEREGVSCITGSLGDPYVDESLQGRFTISRDDHKNMVYLRMNSLKSEDTALYYCAIVRGCKDHDAYADVRARGQGTQVTVSS", "notes": "also called 针对前列腺特异性膜抗原的单域重链抗体阳性克隆; 展示本发明所述纳米抗体的噬菌体克隆; not shown: the fusion to the phage coat protein is not described"}}, "key": {"重组表达的PSMA胞外区蛋白": {"target": "T1, 重组表达的PSMA胞外区蛋白 (UniProt Q04609 44-750, limits assumed)", "T1 construct": "extracellular domain; also called 前列腺特异性膜抗原膜外区; PSMA蛋白; not shown: His tag (purified on HisTrap, detected with anti-His antibody)", "T1 sequence (Q04609 44-750 limits assumed)": "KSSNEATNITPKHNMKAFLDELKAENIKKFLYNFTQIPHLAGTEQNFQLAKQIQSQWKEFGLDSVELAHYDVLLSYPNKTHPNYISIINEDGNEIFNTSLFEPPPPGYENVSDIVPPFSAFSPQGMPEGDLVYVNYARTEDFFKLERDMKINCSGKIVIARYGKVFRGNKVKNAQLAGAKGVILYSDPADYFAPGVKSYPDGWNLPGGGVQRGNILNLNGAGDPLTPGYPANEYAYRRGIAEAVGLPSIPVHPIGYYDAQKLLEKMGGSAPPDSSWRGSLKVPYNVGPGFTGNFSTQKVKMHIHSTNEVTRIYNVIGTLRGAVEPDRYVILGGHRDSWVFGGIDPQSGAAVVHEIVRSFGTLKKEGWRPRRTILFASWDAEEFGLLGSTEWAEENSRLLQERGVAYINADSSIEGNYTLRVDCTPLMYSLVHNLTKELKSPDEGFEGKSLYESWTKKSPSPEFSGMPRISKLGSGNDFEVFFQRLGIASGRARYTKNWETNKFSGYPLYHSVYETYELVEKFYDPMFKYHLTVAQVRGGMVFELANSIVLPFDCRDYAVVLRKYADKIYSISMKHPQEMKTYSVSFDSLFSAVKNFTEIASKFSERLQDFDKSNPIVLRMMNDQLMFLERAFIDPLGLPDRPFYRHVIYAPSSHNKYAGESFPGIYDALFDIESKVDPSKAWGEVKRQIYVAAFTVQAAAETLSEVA", "test": "indirect phage-ELISA, PSMA extracellular domain coated at 5 μg/mL, HRP-anti-M13 detection"}, "[1]": {"target": "T2, 前列腺特异性膜抗原 (PSMA) on LNCaP cells (UniProt Q04609 1-750, limits assumed)", "T2 construct": "whole, on cells; also called LNCaP细胞(表达PSMA)", "T2 sequence (Q04609 whole entry)": "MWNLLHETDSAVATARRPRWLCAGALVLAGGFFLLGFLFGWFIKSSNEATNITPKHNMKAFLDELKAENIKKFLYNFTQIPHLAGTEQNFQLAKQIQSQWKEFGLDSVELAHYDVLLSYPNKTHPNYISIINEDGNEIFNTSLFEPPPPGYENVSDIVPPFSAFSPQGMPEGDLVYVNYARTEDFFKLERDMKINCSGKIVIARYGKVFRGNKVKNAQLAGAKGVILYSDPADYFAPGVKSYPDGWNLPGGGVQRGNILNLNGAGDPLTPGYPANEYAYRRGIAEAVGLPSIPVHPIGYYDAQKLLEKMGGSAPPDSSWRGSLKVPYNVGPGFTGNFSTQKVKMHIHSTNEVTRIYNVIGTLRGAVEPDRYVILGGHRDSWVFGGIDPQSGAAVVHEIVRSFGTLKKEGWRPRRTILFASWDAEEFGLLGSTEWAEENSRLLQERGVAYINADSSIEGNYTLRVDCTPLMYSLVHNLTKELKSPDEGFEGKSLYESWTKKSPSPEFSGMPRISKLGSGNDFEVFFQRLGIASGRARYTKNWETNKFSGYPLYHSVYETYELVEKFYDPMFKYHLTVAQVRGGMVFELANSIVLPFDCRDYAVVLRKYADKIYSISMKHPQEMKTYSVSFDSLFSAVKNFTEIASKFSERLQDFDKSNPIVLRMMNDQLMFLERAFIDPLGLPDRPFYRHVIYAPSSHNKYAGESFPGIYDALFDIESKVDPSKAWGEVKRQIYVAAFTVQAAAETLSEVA", "test": "cell ELISA (HRP-anti-M13) and immunofluorescence on fixed LNCaP cells, with PSMA-negative MKN45 cells as comparison"}}, "data": [{"binder": "B1", "values": [{"measurement": "binding result", "setting": "重组表达的PSMA胞外区蛋白", "value": "binds"}, {"measurement": "binding result", "setting": "[1]", "value": "binds"}]}]}
